How the values were obtained:
Experiment in all cases: Biacore (SPR)
hBMP2 = hBMP2 (human, UniProt P12643 283-396)
hBMP4 = molecular target: T1, hBMP4 (human, UniProt P12644 293-408)
T1 sequence (looked up): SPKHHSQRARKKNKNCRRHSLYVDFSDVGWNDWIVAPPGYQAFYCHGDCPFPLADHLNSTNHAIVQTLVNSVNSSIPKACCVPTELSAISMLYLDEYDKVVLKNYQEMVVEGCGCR

hBMP7 = molecular target: T2, hBMP7 (human, UniProt P18075 293-431)
T2 sequence (looked up): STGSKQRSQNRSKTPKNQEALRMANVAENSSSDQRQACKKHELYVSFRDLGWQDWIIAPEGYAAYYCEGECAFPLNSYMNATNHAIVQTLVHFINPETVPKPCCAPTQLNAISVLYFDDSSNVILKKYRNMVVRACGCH

Sequence of hBMP2 (P12643 283-396 limits assumed): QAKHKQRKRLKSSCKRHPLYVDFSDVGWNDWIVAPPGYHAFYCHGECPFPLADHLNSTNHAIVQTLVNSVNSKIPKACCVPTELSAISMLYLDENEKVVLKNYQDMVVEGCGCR

B1: mALK3(24-152)-mFc derived from HEK 293 cells (Fc fusion)
chain: GAQNLDSMLHGTGMKSDLDQKKPENGVTLAPEDTLPFLKCYCSGHCPDDAINNTCITNGHCFAIIEEDDQGETTLTSGCMKYEGSDFQCKDSPKAQLRRTIECCRTNLCNQYLQPTLPPVVIGPFFDGSIRTGGGEPRVPITQNPCPPLKECPPCAAPDLLGGPSVFIFPPKIKDVLMISLSPMVTCVVVDVSEDDPDVQISWFVNNVEVHTAQTQTHREDYNSTLRVVSALPIQHQDWMSGKEFKCKVNNRALPSPIEKTISKPRGPVRAPQVYVLPPPAEEMTKKEFSLTCMITGFLPAEIAVDWTSNGRTEQNYKNTATVLDSDGSYFMYSKLRVQKSTWERGSLFACSVVHEGLHNHLTTKTISRSLGK
notes: The Gly-Ala at 23-24 may also be absent, since the main species of the human construct starts at Gln; also called mALK3-mFc
Kd (hBMP2): 2.43 nM | Kd (hBMP4): 0.947 nM | binding result (hBMP7): binds
